Source: patent US20230227508A1, “SPLIT INTEIN-BASED SELECTION FOR PEPTIDE BINDERS” (priority 2020, published 2023)

Biological target: σN-NpuN-Mdm2* bait fusion (residues 17-124 of Mdm2) (UniProt Q00987)
Test: cell-based or functional assay

σN-NpuN-Mdm2* bait fusion (residues 17-124 of Mdm2), sequence (Q00987 other isoform, or with tags, fused parts or gaps limits assumed): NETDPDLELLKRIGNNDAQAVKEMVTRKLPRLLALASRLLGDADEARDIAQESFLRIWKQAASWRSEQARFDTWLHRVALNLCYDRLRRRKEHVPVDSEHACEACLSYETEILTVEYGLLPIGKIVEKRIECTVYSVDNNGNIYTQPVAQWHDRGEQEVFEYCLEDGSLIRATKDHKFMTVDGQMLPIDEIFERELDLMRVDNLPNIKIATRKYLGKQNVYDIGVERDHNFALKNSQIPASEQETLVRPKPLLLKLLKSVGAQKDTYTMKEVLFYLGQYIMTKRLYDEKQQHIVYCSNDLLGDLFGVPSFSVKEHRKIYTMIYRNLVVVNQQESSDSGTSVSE

For “PMI-NpuC-σC peptide fusion (PMI, high affinity variant of residues 15-29 of p53)”, the difference in output with against without bait and peptide when σN-NpuN was fully induced and the NpuC-σC fragment uninduced was > 200 fold.
